One may read the Kd as the concentration at which binding is half-saturated. A high value points to lower affinity.

The results in this text go back to publication PMC9170038, “Crowdsourced RNA design discovers diverse, reversible, efficient, self-contained molecular switches”.

The chains are these.
B1: Eterna 1103 (Exclusion - Theophylline A) (ssRNA)
RNA: AGUGACGAGUGAUGUUCGUGAACACUGGAUACCAGCAGUCUUAUCUGCCCUUGGCAGCCAACGGGAACCGAAUGUUAAGACCUGU
B2: Eterna 6113948 (Same State NG 3) (ssRNA)
RNA: UGUUGUGAACAGAACAUGAGGAUCACCCAUGUGCACUCGUGUAAGGAUAUACAAUCGUAUGGAAAGUAGAAGGUACUAAUUAUG
B3: Eterna 7616965 (Same State - Arginine A) (ssRNA)
RNA: UACAUGAGGAUCACCCAUGUAUGUAUCGAAGGAGCGCGUGUAAACGCAGGUAGGUCGCGAACAUGAGGAUCACACAUGAGGAUCA
B4: Eterna 13817 (Sensor v3, turn-off variant 2) (ssRNA)
RNA: UGUACUAUGCGUGCUGACAUGCGUAGUGCAGCAGGUGUAACAUGAGGAUCACCCAUGUCCUCAUUUGCUCGUCUUAA
B5: Eterna 7708488 (Same State - Arginine A) (ssRNA)
RNA: UAUACGAAGCAGUGAUGUUGCUUAUGAGAAGGAGCGCACGAAAGUGCAGGUAGGUCGCUCAGCCAUGUGGACGAAAACGUCCACA
B6: Eterna 7684651 (Exclusion - Tryptophan A) (ssRNA)
RNA: AACUUAAUUUAUAAGCAGUGAUGUUGCUCACGAGGACCGGUACGGCCGCCACUCGAUCGGACUUAGGUCUUCAAUUAUUUCAUUA
B7: Eterna 5987116 (Exclusion 5) (ssRNA)
RNA: UUAGGAUCAGGAUAUGAUGUUUUAAACAUGAGGAUCACCCAUGUAGAUCCUGAUUCAACAUCAGAAGGGAUAAUUU
B8: Eterna 10350 (Sensor for hsa-mir-208a) (ssRNA)
RNA: GCCCAUAGUAUAUGGAUACAAGCUUUUUGACAUGAGGAUCACCCAUGUACUCGUCUUAUGUGCAGUCCGUAGACUGC
B9: Eterna 5982822 (Brourd's mod of Exclusion 4) (ssRNA)
RNA: GGAUCGAAUGUGAGGAUAUGCUGGUCCUUGGAUCAGCAGAAGGCACAUGAGGAUCACCCAUGUGGUAACGGUCC
B10: Eterna 6445724 (Inverted Small Loop Same State NG 1) (ssRNA)
RNA: AACCUAAAACAGAAGGCCAGCUACAUGAGGAUCACCCAUGUCGAAUCAUGGAGGAUAUGUUGUAAUUUACUCGCAGAUGAGUGC
B11: Eterna 6444393 (Inverted Same State NG 3) (ssRNA)
RNA: UGUUUUGUACAUGAGGAUCACCCAUGUUAAUAUGUGGUAGUCAGAAGGCAUUGUUUGAGAUAUUAUGAGGAUAUGAUUAGUCUG
B12: Eterna 7689816 (Same State - Arginine A) (ssRNA)
RNA: GCGAACAUUCGCAGUGAUGUUGCGACGGAAGGAGCGCGUGAAAACGCAGGUAGGUCGCCGACAUACUUAAUUUUACAGUGUUCGC
B13: Eterna 7728774 (Exclusion - Theophylline A) (ssRNA)
RNA: AUCACAGUGAUGUUGUGAUAUGAUUCAGAUACCAGACUAGUGCUAGUCCCUUGGCAGCUGAACUCAGCAGCACCACUAGCACUCU
B14: Eterna 5859795 (Exclusion NG 3) (ssRNA)
RNA: ACAUGAGGAUCACCCAUGUAAUGAAGGGUACUAUACUAAACGUAGGAUAUCGAUGUAAGAUUGUACGAGAAGGACGAUUGCCUU
B15: Eterna 7625640 (Exclusion - Theophylline B) (ssRNA)
RNA: UAUAUUGUGAUGGAUACCAGCAGAGAAAACGUUUAUCCUAACAUGAGGAUCACCCAUGUAUGCCCUUGGCAGCUGUUGUGGUAUA
B16: Eterna 1281 (Exclusion - Tryptophan B) (ssRNA)
RNA: GAGAAUCUCACGGCCGCCACUCACCUGUUAAUUGACAUCGACGGCCUCGACCAGUGAUGUUGUGUGAGGACCGGGUGUCUCGUGU
B17: Eterna 7619949 (Exclusion - Theophylline A) (ssRNA)
RNA: CGCAACCCUAAGGGAUUGUGGUUAUUAGAUACCAGUAUGAUGCAAUACCCUUGGCAGCUAAUACAUGAGGAUCACCCAUGUUGCG
B18: Eterna 7748347 (Exclusion - Theophylline B) (ssRNA)
RNA: UUUUAGGUAUCUGAUACCAGAGAAAAUAUAUGUAGUGAUGUUAUAUACAAAAUAAUUAAGCUCCCUUGGCAGCAGUUUUAAUUUU
B19: Eterna 6391458 (Small Loop Exclusion NG 1) (ssRNA)
RNA: ACAUGUUUUGUAGGAUAUCACUAGUUGUGUUAUAUAUUUGUUAUAAUGUAUUGAGAAGGACAUUUACAUGAGGAUCACCCAUGU
B20: Eterna 7612252 (Exclusion - Arginine B) (ssRNA)
RNA: ACGUAAUGCAGAAGGAGCGUCUGAUUUUAACAUGAGGAUCACCCAUGUAAUAUUUAUGGUAGACAGGUAGGUCGCUGAAGUACGA
B21: Eterna 6124659 (Same State NG 3) (ssRNA)
RNA: GAAUAUUCGUUGAACAUGAGGAUCACCCAUGUAACUUGACAUGAGGAUAUGGAUUCUAAUUGGAUCCAGAAGGUAUGAAUAUUC
B22: Eterna 7754737 (Exclusion - Tryptophan A) (ssRNA)
RNA: CGCUUUGCGUCCGGUAGUGAUGUUACCAAGCGAGGACCGGUACGGCCGCCACUCGAGUGACAGACGUACUGGUAUCACCCGCUUU
B23: Eterna 7769703 (Exclusion - Tryptophan A) (ssRNA)
RNA: AAACAUCACUGGGAGUGAUGUUCUCAGUGACGAGGACCGGUACGGCCGCCACUCGCGAGAGAACUAGUCUAGACUUGACUGCAUU
B24: Eterna 7727526 (Same State - Tryptophan A) (ssRNA)
RNA: GACGGGCAGUGAUGUUGCCGGUCUCUUGGACGAGGACCGGUACGGCCGCCACUCGAUCUGAUGCGAGAAUUGUAUCUUUUAAUAA
B25: Eterna 7688897 (Exclusion - Tryptophan B) (ssRNA)
RNA: ACGAUCAUGUCGGCCGCCACUGAGAGUAGUGAUGUUACUUUUAUGUUUUAGUUAUAAUAUUUGAACAGGACCGGGACAUGUUCGU
B26: Eterna 7653720 (Same State - Theophylline B) (ssRNA)
RNA: UGUAUGUGAUUUGAUACCAGACCAGCUGGUGGUACCUGAGGAACACCCAGGUAGGUUUGGGUCCCUUGGCAGCAAAUCGCAUACU
B27: Eterna 6436678 (Exclusion NG 2) (ssRNA)
RNA: AAAUUAAGAAGAGGAUAUUGACAUGAGGAUCACCCAUGUAUUUGGGAGUGUUUACUGAAUUCUUACGAGAAGGCUUACGAACUU
B28: Eterna 6056021 (Exclusion 3) (ssRNA)
RNA: GGGCCCGGAGGAUAUACAUGAGGAUCACCCAUGUAGGGCCCGGGUAUUCCCGGGUUUUGUAGAAGGCCGGGCCC
B29: Eterna 5860431 (Same State NG 1) (ssRNA)
RNA: UAAUGUUAGCGAGGAUAUCGUUUAUUGAAGUUACGAGAAGGCGCUCUUCUUACAUGAGGAUCACCCAUGUCUGUUUUGCAUGAU
B30: Eterna 7641374 (Exclusion - Arginine A) (ssRNA)
RNA: GACAUGAGGAUCACCCAUGUUUUCUAUGAAGGAGCGUCGGAAAUGACAGGUAGGUCGCAUGGUAGGACUUGUAUCUUGUAUGUAG
B31: Eterna 6388885 (Inverted Exclusion NG 1) (ssRNA)
RNA: UUAUUUUUACAGAAGGUUUAAUAAUAUGUAUGAGAAGGAUAUGUAACAUGAGGAUCACCCAUGUUUUAUUUAUAUGAGGAUCAU
B32: Eterna 6433253 (Small Loop Same State NG 3) (ssRNA)
RNA: CGUUUAUAUAUGGGUUUAUAUUAUGAGGAUAUCAAUAUUUAAUACAUGAGGAUCACCCAUGUUACUGAGAAGGCAUAAUUAACG
B33: Eterna 7678688 (Same State - Tryptophan A) (ssRNA)
RNA: AACACUCUGGGAGUGAUGUUCUCAAAUAACCGAGGACCGGUACGGCCGCCACUCGGAAAAGAGUGAGUCCUACGAAAAGUAGGAC
B34: Eterna 6122884 (Exclusion NG 3) (ssRNA)
RNA: CGAUAACAUAGUUAUCCGUAACGGACAUGAGGAUCACCCAUGUAGGAUAUGUUACUAAACUAGUAACAGAAGGACAUGAGUCUU
B35: Eterna 15548 (Exclusion 2) (ssRNA)
RNA: GUGUAGAUAGGAUAUGCUUUGAGCUUAUGAGAGUAUGCUCGACAUGAGGAUCACCCAUGUAGAAGGGUUUACAC
B36: Eterna 7691660 (Exclusion - Tryptophan B) (ssRNA)
RNA: AGAUUCGACACGGCCGCCACUUGUGGUGGAUUAUCCUAUGUAAGACAUGAGUGAUGUUCAUGUACAAGGACCGGGUGUUGAGUCU
B37: Eterna 11304 (Exclusion 2) (ssRNA)
RNA: UCGGCGCGAGGAUAUACGGUUGCUUGGUAGGGUCGUGGCGUACAUGAGGAUCACCCAUGUAGAAGGCGCGCCGC
B38: Eterna 7697880 (Same State - Tryptophan B) (ssRNA)
RNA: AACAGCAAUGCGGCCGCCACUUCGAGGUCAGUGAUGUUGACAGAAUUAAAUAAAGAUCCCAAGAGGAGGACCGGGCAGUGCUGUU
B39: Eterna 1109 (Exclusion - Theophylline A) (ssRNA)
RNA: UCGGCGGAGUGAUGUUCCUAUGUCCAAGAUACCAGUCUAUGAACGGACCCUUGGCAGCUUCCAUUAGGUUACUAUUUAGACUCAU

For this series, the target named is MS2 coat protein, dlFG mutant (Escherichia phage MS2, UniProt P03612, del68-81insG). The experiment in a line: 4 mM Mg2+; no ligand; RNA-MaP array; 100 mM Tris-HCl pH 7.5, 80 mM KCl, 4 mM MgCl2, 0.1 mg/mL BSA, 1 mM DTT, 0.01 mg/mL yeast tRNA, 0.01% Tween-20; protein 1.5 nM to 3 uM; 37 C (Table S3). Particulars: chain copies: 2; label: tethered by stalled RNA polymerase.
On to B1, for which the dissociation constant (Kd) was greater than 3000 nM. On to B2, for which binding was characterised by a dissociation constant (Kd) of 133 nM. In turn, B3 gave an equilibrium dissociation constant (Kd) of 24.5 nM. In turn, B4 showed a dissociation constant (Kd) of 386 nM. Turning to B5, the Kd is greater than 3000 nM. The molecule B6 displayed a dissociation constant (Kd) greater than 3000 nM. With B7 the figure was 15.1 nM; with B8, 27.2 nM. With B9, binding was characterised by a dissociation constant (Kd) of 233 nM. In turn, B10 came in with a dissociation constant Kd of 35.5 nM. With B11 the figure was 60.6 nM. Regarding B12, the Kd was greater than 3000 nM. With B13, the equilibrium dissociation constant (Kd) was greater than 3000 nM. The figure for B14 is 45.5 nM; for B15 it is 44.2 nM; for B16 it is greater than 3000 nM. B17: the dissociation constant (Kd) came out at 13.8 nM. In turn, B18 gave a dissociation constant (Kd) greater than 3000 nM.

In the case of B19, the affinity, expressed as Kd, was 8.7 nM. With B20 the figure was 15.4 nM. On to B21, for which binding was characterised by a dissociation constant (Kd) of 75.8 nM. Compared with the last molecule, the Kd is about 4.9-fold higher. The molecule B22 returned a Kd greater than 3000 nM. B23 registered a Kd greater than 3000 nM. In the case of B24, the Kd is greater than 3000 nM. B25 had a Kd greater than 3000 nM.

Molecule B26 returned a dissociation constant Kd of 35.5 nM. Regarding B27, the affinity, expressed as Kd, was 223 nM.

For B28, the equilibrium dissociation constant (Kd) worked out at 15 nM.

On to B29, for which binding was characterised by a dissociation constant (Kd) of 68.7 nM. The molecule B30 returned a dissociation constant Kd of 14.5 nM. Compared with the last molecule, the Kd is about 4.7-fold lower.

Molecule B31 displayed a dissociation constant (Kd) of 10.7 nM. Turning to B32, the dissociation constant (Kd) stood at 12.1 nM. The molecule B33 registered a Kd greater than 3000 nM. The figure for B34 is 37.2 nM.

Regarding B35, the affinity, expressed as Kd, was 88.3 nM. B36 showed a Kd greater than 3000 nM. With B37, the Kd came out at 17.3 nM.

Take B38: the dissociation constant (Kd) was greater than 3000 nM. B39 gave a dissociation constant Kd greater than 3000 nM.
